Measurements as given in publication PMC11331516.

Experiments:
[1] = biological target: Bovine κ-casein labelled with EDANS-C2-maleimide (donor) or DABCYL-C2-maleimide (acceptor) (bovine); test: FRET or BRET; time-resolved FRET titration; donor (EDANS) κ-casein constant at 0.01% (5 μM), acceptor (DABCYL) κ-casein 0.01-0.38% (5-200 μM); in H2O, 293 K; indefinite isodesmic association, adding a monomer to an associate
[2] = biological target: Bovine κ-casein labelled with EDANS-C2-maleimide (donor) or DABCYL-C2-maleimide (acceptor) (bovine); test: FRET or BRET; as the FRET titration but with 5 mM sodium phosphate buffer added; data not shown
[3] = biological target: Bovine κ-casein (bovine); test: PFG NMR diffusion; κ-casein 0.1 to 10% (w/v) in 100% D2O, pH 7.0, 298 K; STE and MODSTE pulse sequences, td 50-800 ms; fresh samples; below the threshold of gel formation
[4] = biological target: Bovine κ-casein (bovine); test: PFG NMR diffusion; κ-casein 20% (w/v) in 100% D2O, 298 K; MODSTE pulse sequence, td 50-800 ms; gel-like network

Kd [1] | fold decrease of the equilibrium association constant with 5 mM sodium phosphate buffer against the aqueous solution [2] | Substance | fraction of molecules within the associate, pmin(0) (0.5% solution) [3] | lifetime of molecules within the associate (0.5% solution) [3] | stoichiometry N [3] | lifetime of molecules within the gel network (20% solution) [4] | percent of molecules in the gel network (20% solution) [4]
9.5 µM | 3 fold | Bovine κ-casein labelled with EDANS-C2-maleimide (donor) or DABCYL-C2-maleimide (acceptor) (natural protein) |  |  |  |  | 
 |  | Bovine κ-casein (natural protein) | 0.23 | 0.53 s | < 31 molecules | 0.98 s | 34%
